T1: recombinant human herpes virus entry mediator (HVEM) (human, UniProt Q92956 39-202)
T1 construct: neither construct is described; also called human HVEM; recombinant human HVEM protein (R&D systems)
T1 sequence (looked up): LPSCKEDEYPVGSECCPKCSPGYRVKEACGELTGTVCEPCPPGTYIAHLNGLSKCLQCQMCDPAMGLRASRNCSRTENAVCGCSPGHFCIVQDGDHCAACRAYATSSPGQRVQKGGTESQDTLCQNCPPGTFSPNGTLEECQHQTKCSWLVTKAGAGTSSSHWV

T2: recombinant human FAP (human, UniProt Q12884 26-760)
T2 construct: also called rhFAP
T2 sequence (looked up): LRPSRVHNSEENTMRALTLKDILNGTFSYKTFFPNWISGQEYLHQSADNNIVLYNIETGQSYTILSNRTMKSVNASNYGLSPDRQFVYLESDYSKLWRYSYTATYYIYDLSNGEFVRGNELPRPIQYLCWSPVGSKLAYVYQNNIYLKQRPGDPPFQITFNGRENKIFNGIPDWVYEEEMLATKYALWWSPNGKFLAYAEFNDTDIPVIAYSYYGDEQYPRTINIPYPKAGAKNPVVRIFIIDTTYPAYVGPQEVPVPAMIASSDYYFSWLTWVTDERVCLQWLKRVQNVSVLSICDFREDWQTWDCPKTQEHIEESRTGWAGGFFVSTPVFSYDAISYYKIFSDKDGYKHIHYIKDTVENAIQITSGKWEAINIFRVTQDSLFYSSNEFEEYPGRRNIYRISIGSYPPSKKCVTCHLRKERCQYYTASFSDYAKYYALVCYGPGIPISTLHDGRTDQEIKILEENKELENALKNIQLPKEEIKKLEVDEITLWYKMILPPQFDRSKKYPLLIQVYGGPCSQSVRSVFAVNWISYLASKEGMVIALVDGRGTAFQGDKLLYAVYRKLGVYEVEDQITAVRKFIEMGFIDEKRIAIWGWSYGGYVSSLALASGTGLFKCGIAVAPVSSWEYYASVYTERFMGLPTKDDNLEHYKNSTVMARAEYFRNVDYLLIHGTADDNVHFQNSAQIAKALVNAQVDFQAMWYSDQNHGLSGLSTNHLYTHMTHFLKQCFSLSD

T3: human DcR3 (human, UniProt O95407 30-300)
T3 construct: also called LIGHT receptor DcR3
T3 sequence (looked up): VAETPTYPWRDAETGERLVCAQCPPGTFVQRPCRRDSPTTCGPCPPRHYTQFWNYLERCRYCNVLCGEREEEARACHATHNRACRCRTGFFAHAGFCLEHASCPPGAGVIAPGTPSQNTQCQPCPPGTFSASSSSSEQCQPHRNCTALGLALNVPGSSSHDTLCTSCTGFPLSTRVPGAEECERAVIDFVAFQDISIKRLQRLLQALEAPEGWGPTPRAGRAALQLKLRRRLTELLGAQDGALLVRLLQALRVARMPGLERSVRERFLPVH

B1: T3.04 (anti-hu FAP/hu scLIGHT3(GGGGS4), hu IgG1 DANG) (bispecific antibody)
heavy: QVQLVQSGAEVKKPGASVKVSCKTSRYTFTEYTIHWVRQAPGQRLEWIGGINPNNGIPNYNQKFKGRVTITVDTSASTAYMELSSLRSEDTAVYYCARRRIAYGYDEGHAMDYWGQGTLVTVSSASTKGPSVFPLAPSSKSTSGGTAALGCLVKDYFPEPVTVSWNSGALTSGVHTFPAVLQSSGLYSLSSVVTVPSSSLGTQTYICNVNHKPSNTKVDKKVEPKSCDKTHTCPPCPAPELLGGPSVFLFPPKPKDTLMISRTPEVTCVVVAVSHEDPEVKFNWYVDGVEVHNAKTKPREEQYGSTYRVVSVLTVLHQDWLNGKEYKCKVSNKALPAPIEKTISKAKGQPREPQVYTLPPSRDELTKNQVSLWCLVKGFYPSDIAVEWESNGQPENNYKTTPPVLDSDGSFFLYSKLTVDKSRWQQGNVFSCSVMHEALHNHYTQKSLSLSPGK
light: not shown
chain: not shown
notes: Knob-into-hole; LIGHT homotrimer with (GGGGS)4 linkers
B2: T3.07 (anti-hu FAP-hu scLIGHT2/anti-hu FAP-hu LIGHT, hu IgG1 DANG (2 + 1)) (bispecific antibody)
heavy 1: QVQLVQSGAEVKKPGASVKVSCKTSRYTFTEYTIHWVRQAPGQRLEWIGGINPNNGIPNYNQKFKGRVTITVDTSASTAYMELSSLRSEDTAVYYCARRRIAYGYDEGHAMDYWGQGTLVTVSSASTKGPSVFPLAPSSKSTSGGTAALGCLVKDYFPEPVTVSWNSGALTSGVHTFPAVLQSSGLYSLSSVVTVPSSSLGTQTYICNVNHKPSNTKVDKKVEPKSCDKTHTCPPCPAPELLGGPSVFLFPPKPKDTLMISRTPEVTCVVVAVSHEDPEVKFNWYVDGVEVHNAKTKPREEQYGSTYRVVSVLTVLHQDWLNGKEYKCKVSNKALPAPIEKTISKAKGQPREPQVYTLPPSRDELTKNQVSLWCLVKGFYPSDIAVEWESNGQPENNYKTTPPVLDSDGSFFLYSKLTVDKSRWQQGNVFSCSVMHEALHNHYTQKSLSLSPGKGGGGSGGGGSEVNPAAHLTGANSSLTGSGGPLLWETQLGLAFLRGLSYHDGALVVTKAGYYYIYSKVQLGGVGCPLGLASTITHGLYKRTPRYPEELELLVSQQSPCGRATSSSRVWWDSSFLGGVVHLEAGEKVVVRVLDERLVRLRDGTRSYFGAFMVGGSGEVNPAAHLTGANSSLTGSGGPLLWETQLGLAFLRGLSYHDGALVVTKAGYYYIYSKVQLGGVGCPLGLASTITHGLYKRTPRYPEELELLVSQQSPCGRATSSSRVWWDSSFLGGVVHLEAGEKVVVRVLDERLVRLRDGTRSYFGAFMV
heavy 2: not shown
light: not shown
notes: Knob-into-hole; two anti-FAP arms, LIGHT dimer and LIGHT monomer at the C-termini of the two heavy chains; two copies of the light chain follow from the (2 + 1) format

Experiments:
[1] = biological target: T1, recombinant human herpes virus entry …; assay: sandwich ELISA: plate coated with recombinant human HVEM 1 ug/mL, fusion protein from 1 nM in serial dilution, detected with biotinylated recombinant human FAP and streptavidin conjugate, OD 450 nm
Protocol: Considering that LIGHT of the fusion protein must bind to the herpes virus entry mediator (HVEM) for the action, it was confirmed that T3.01 binds to the recombinant human HVEM, as follows: [0370] (i) The recombinant human HVEM protein (R&D systems) was suspended at 1 μg/mL, dispensed in a 96-well immune plate, and treated for 24 hours. [0371] (ii) The wells were washed with a wash solution, and then blocking was performed for 1 hour with 1% BSA (bovine serum albumin, Sigma) solution. [0372] (iii) The wells were washed with a wash solution, and then T3.01, T3.14, T3.16, T3.17, T3.18 and T3.10, or T3.05, T3.06, T3.04, T3.14 and T3.10 were suspended at 1 nM and diluted by serial dilution. The wells were treated with the diluted T3.01, T3.14, T3.16, T3.17, T3.18 and T3.10, or T3.05, T3.06, T3.04, T3.14 and T3.10 for 2 hours. [0373] (iv) The wells were washed with a wash solution, and then treated with the human recombinant FAP-biotin diluted at 0.5 μg/mL for 2 hours. [0374] (v) The wells were washed with a wash solution, and then treated with streptavidin-RP for 20 minutes. [0375] (vi) The wells were washed with a wash solution, and then treated with a substrate solution for 20 minutes. [0376] (vii) The wells were treated with a stop solution, and the absorbance was measured at 450 nm.

human LTβR on A375 cells [2] = biological target: T4, human LTβR on A375 cells (human, UniProt P36941 31-435); assay: flow cytometry on A375 cells, serial dilutions, anti-human IgG detection, MFI against TMEkine [nM]
T4 construct: whole, on cells; Endogenous receptor of a human cell line; also called LTβR expressing A375 cells; LTβR expressing cell line
T4 sequence (P36941 31-435): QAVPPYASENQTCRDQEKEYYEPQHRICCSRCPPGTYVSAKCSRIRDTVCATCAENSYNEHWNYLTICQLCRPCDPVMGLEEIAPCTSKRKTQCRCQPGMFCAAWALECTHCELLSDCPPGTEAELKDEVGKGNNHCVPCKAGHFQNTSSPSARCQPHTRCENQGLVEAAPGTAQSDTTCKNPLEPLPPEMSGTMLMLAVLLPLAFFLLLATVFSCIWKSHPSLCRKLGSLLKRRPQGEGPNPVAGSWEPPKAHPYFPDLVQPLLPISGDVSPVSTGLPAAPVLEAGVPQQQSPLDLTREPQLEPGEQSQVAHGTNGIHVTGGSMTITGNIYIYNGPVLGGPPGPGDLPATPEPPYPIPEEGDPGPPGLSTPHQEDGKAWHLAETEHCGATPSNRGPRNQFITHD
Protocol: (§1) Specifically, the A375 cell line was prepared by suspending in a FACS buffer solution at 1×10⁵ cells/100 μL, and treated with 100 μL each of T3.01, T3.07, T3.04, and T3.18 prepared by suspending at 500 nM and diluting by serial dilution. The cells were washed twice with a FACS buffer solution. The cells were stained with an anti-human IgG antibody (Biolegend). The expression ratio of the stained cells was measured using BD LSR and analyzed using FlowJo software.

human LTβR on A375 cells [3] = biological target: T4, human LTβR on A375 cells; assay: flow cytometry on A375 cells, serial dilution from 500 nM, anti-human IgG detection
Protocol: as §1

human LTβR on A375 cells [4] = biological target: T4, human LTβR on A375 cells; assay: cell-based or functional assay
[5] = biological target: T5, recombinant human lymphotoxin beta receptor (LTβR) (human, UniProt P36941 28-227, limits assumed); assay: SPR, human LTβR immobilised on CM5, fusion protein as analyte, 1:1 binding model
T5 construct: neither construct is described; also called human LTβR; recombinant human LTβR protein
T5 sequence (P36941 28-227 limits assumed): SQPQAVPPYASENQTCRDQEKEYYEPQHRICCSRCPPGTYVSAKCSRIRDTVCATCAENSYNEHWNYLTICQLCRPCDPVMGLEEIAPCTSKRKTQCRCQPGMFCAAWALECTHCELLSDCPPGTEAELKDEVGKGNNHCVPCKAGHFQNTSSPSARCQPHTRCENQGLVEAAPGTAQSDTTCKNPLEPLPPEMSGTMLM
Protocol: Specifically, the surface of the CM5 chip was activated with a 1:1 mixture of […], and 5 μg/mL of human LTβR was immobilized for 60 seconds at a rate of 10 μL/min. The remaining active ester groups were blocked with 1 M ethanolamine. […] The diluted fusion proteins were reacted at a rate of 30 μL/min. The association and dissociation times were 180 seconds and 400 seconds, respectively. After the dissociation step, stabilization was performed for 60 seconds, and then the regeneration step was performed for 30 seconds with a 10 mM glycine pH 1.5 solution at a rate of 30 μL/min.

recombinant human FAP = biological target: T2, recombinant human FAP; assay: SPR, fusion protein captured by anti-human IgG (Fc) on CM5, recombinant human FAP as analyte, 1:1 binding model
Protocol: Specifically, the surface of the CM5 chip was activated with a 1:1 mixture of […] NHS (N-hydroxysuccinimide) and 200 nM EDC (1-ethyl-3-(3-dimethylaminopropyl)carbodiimide), and 20 μg/mL of anti-human IgG (Fc) antibody was immobilized for 400 seconds at a rate of 10 μL/min. The remaining active ester groups were blocked with 1 M ethanolamine. T3.01, T3.07, and T3.14 were diluted to 2 μg/mL, 1 μg/mL, and 2 μg/mL, respectively, and reacted on the CM5 chip immobilized with the anti-human IgG (Fc) antibody. The recombinant human FAP was diluted to 50 nM or 100 nM in 1×HBS-EP+buffer solution and diluted by serial dilution. The diluted recombinant human FAP was reacted at a rate of 30 μL/min. The association and dissociation times were 180 seconds and 400 seconds, respectively. After the dissociation step, stabilization was performed for 60 seconds, and then the regeneration step was performed for 30 seconds with a 10 mM glycine pH 1.5 solution at a rate of 30 μL/min.

human DcR3 = biological target: T3, human DcR3; assay: SPR, human DcR3 immobilised on CM5, fusion protein as analyte, 1:1 binding model
Protocol: (§2) Specifically, the surface of the CM5 chip was activated with a 1:1 mixture of […], and 5 to 6 μg/mL of human DcR3 was immobilized for 60 seconds at a rate of 10 μL/min. The remaining active ester groups were blocked with 1 M ethanolamine. T3.01, T3.07, T3.09, T3.14, and T3.18 were each diluted to 50 nM or 200 nM in 1×HBS-EP+buffer solution and diluted by serial dilution. The diluted fusion proteins were reacted at a rate of 30 μL/min. The association and dissociation times were 180 seconds and 400 seconds, respectively. After the dissociation step, stabilization was performed for 60 seconds, and then the regeneration step was performed for 30 seconds with a 10 mM glycine pH 1.5 solution at a rate of 30 μL/min.

[6] = biological target: T1, recombinant human herpes virus entry …; assay: SPR, human HVEM immobilised on CM5, fusion protein as analyte, 1:1 binding model
Protocol: as §2, with “HVEM” for “DcR3”, “100” for “50 nM or 200”

Binder | binding result [1] | EC50 (read off the curve) (human LTβR on A375 cells [2]) [nM] | percent of cells bound (human LTβR on A375 cells [3]) [%] | IL-8 secretion of A375 cells, EC50 (FIG. 15a) (human LTβR on A375 cells [4]) [nM] | Kd [5] [nM] | koff [5] [s⁻¹] | kon [5] [M⁻¹ s⁻¹] | Kd (recombinant human FAP) [nM] | koff (recombinant human FAP) [s⁻¹] | kon (recombinant human FAP) [M⁻¹ s⁻¹] | IL-8 secretion of A375 cells, EC50 (FIG. 15b) (human LTβR on A375 cells [4]) [nM] | Kd (human DcR3) [nM] | koff (human DcR3) [s⁻¹] | kon (human DcR3) [M⁻¹ s⁻¹] | Kd [6] [nM] | koff [6] [s⁻¹] | kon [6] [M⁻¹ s⁻¹]
B1 | binds | ~4 | ≥ 96 | 0.0604 |  |  |  |  |  |  |  |  |  |  |  |  | 
B2 |  |  | ≥ 96 |  | 0.935 | 0.000382 | 409000 | 0.303 | 0.000118 | 391000 | 0.0477 | 0.598 | 0.000195 | 327000 | 3.99 | 0.00114 | 285000
